Experimental findings from paper PMC9057599 are described below.

For this assay, the target named is histone H4 N-terminus, 1-30 (UniProt P62805). Put plainly: biotin-peptide pulldown, blot. To be noted: reference: wild type ZMYND8; sites S486,S490.

As for “ZMYND8 (from UniProt Q9ULU4) 2SA (S486A/S490A)”, the “binding against the reference” value is “stronger”.
